The record followed here is patent publication US10632208B2, “Peptide-mediated drug delivery across epithelial barrier” (Purdue Research Foundation, priority 2017, dated 2020).

One series relates to Caco-2 cell monolayers. The series is described as follows: Apical-to-basolateral flux of paracellular marker FD4 through Caco-2 monolayers. As to conditions: LAP 1 μg/mL, over a 72-h period; TNF-α 10 ng/mL positive control. It is filed as cell-based, human. Here is the method: To determine the effect of LAP on Caco-2 permeability at specified time points (0, 24, 48 and 72 h) following incubation with recombinant purified LAP, 100 μl of FD4 (1 mg/mL in DMEM) was added to the apical side and the fluorescence readings (Em: 485 nm; Ex: 520 nm; Spectramax, Molecular Devices) for the basal medium (100 μl) were measured. Human TNF-α (10 ng/mL, R&D Systems) was added to both apical and basal sides and used as a positive control.

The next series has as its system human TNF-α. Put plainly: ELISA of TNF-α in Caco-2 cell supernatants. It is filed as cell-based. As to conditions: recombinant LAP 1 μg/mL, 8 h. On the procedure: A semi-quantitative membrane-based RayBio Human Inflammation Antibody Array kit (Ray Biotech) was used to analyze a panel of 40 inflammatory mediators in Caco-2 cell supernatant infected either with the WT or lap^− strain (MOI, ˜50) at 37° C. for 1 h. After killing the extracellular bacteria by gentamicin (50 μg/mL), the Caco-2 cells were incubated for an additional 7 h at 37° C. Recombinant LAP (1 μg/mL) from ClearColi was incubated for 8 h with Caco-2 cells. After immunoblotting, the reaction intensity was quantified using NIH ImageJ software. The data were normalized and expressed as the mean fold changes as a ratio of lap^−/WT±SEM. For the ELISA, Caco-2 cell supernatants were centrifuged (2,000 rpm at 4° C. for 10 min) following treatment as above, and the quantification of TNF-α and IL-6 in was performed using human TNF-α and IL-6 ELISA kits (Ray Biotech) as per manufacturer's instruction. The quantification of TNF-α and IL-6 protein levels was performed in the ileal tissue lysates from mice using mouse TNF-α and IL-6 ELISA kits (Ray Biotech) as per manufacturer's instruction.

The test system of a further series is Caco-2 cells. The series is described as follows: Caco-2 cell viability assay (lactate dehydrogenase release). As to conditions: Caco-2 cells treated with purified recombinant LAP. It is filed as cell-based, human. On the procedure: Caco-2 cell viability assay. To determine Caco-2 viability, cell culture supernatants from Caco-2 cells infected with WT, lap^−, lap^−lap^+, ΔinlA and ΔinlA inlA^+ strains (MOI 50, 2 h) grown on Transwell inserts or treated with the purified recombinant LAP for 24 or 48 h were assayed for lactate dehydrogenase release (Thermo Fisher Scientific). Two controls were included for calculation of percent cytotoxicity (LDH release). Low control consisted of supernatant from untreated Caco-2 cells with no exposure to bacteria. High control was from cells treated with 0.1% Triton X-100 for one minute.

Another series deals with NF-κB. Put plainly: NF-κB luciferase reporter assay in RAW 264.7 cells. It is filed as cell-based, murine. On the procedure: The NF-κB Luciferase reporter RAW 264.7 cell line (Novus Biologicals), which expresses an optimized Renilla luciferase reporter gene (RenSP) under the transcriptional control of an NF-κB response element, was used. The cells were seeded (1×10^5 cells/well) into 96-well luminometer-compatible plates for 16 h and then treated with analytes for 6 h. Media from each well were aspirated, and then 100 μL of ice-cold PBS was added to each well. The plates were then frozen solid at −80° C. overnight to completely lyse the cells, thawed back to room temperature, and luciferase assays were performed using the LightSwitch Luciferase assay kit (Novus Biologicals). Luminescence was measured as the relative luminescence units (RLU) using Spectramax (Spectramax, Molecular Devices) and reported as the relative fold change compared with that of the control cells that were treated with media alone. Recombinant human or mouse TNF-α (R&D Systems) and polymyxin B, LPS (E. coli Serotype R515, Re, TLR grade), and proteinase K (each from Sigma-Aldrich) were used.

The subject of another series is NF-κB(p65). Put plainly: Confocal immunofluorescence of p65 localization in Caco-2 cells. It is filed as cell-based, human. As to conditions: 30 min. Here is the method: For antibody labeling in cells, Caco-2 cells, were grown to 40-50% confluence in four-chambered slides (Millipore). At the end of the treatment, the cells were fixed with 3.7% formaldehyde in PBS for 20 min and permeabilized and blocked with PBS containing 0.3% Triton X-100 and 3% BSA (Sigma-Aldrich) for 1 h at room temperature and then incubated with respective antibodies overnight at 4° C. Following antibody incubation, the cells were washed with PBS (3 cycles, 5 min) and incubated with FITC or Alexa Fluor 555-conjugated secondary antibody for 2 h at room temperature. The nuclei were stained with DAPI (500 ng/ml; Cell signaling) and slides were mounted in ProLong antifade reagent (Cell Signaling).
All images were acquired using a Nikon A1R MP Multiphoton (Nikon) Confocal fluorescence microscope using a 60× oil immersion objective equipped with the Nikon Elements software (Nikon) at the Purdue Bioscience Imaging Facility. The X-Z and Y-Z cross-sections were produced by orthogonal reconstructions from z-stack scanning at 0.15 μm intervals taken with 60× objective in 5 μm thick paraffin embedded tissue section. Three-dimensional reconstructions were performed using Nikon elements software (Nikon).

The target in another series is T1, Hsp60 / IKK-β (Homo sapiens, UniProt P10809).
T1 construct: endogenous in cells; host or cells: Caco-2 (human colon carcinoma, ATCC HTB37)
The series is described as follows: Co-immunoprecipitation of Hsp60 and IKKβ from Caco-2 cell lysates. It is filed as cell-based. The conditions noted are these: LAP 1 μg/ml, 30 min. On the procedure:
Caco-2 cells were treated with or without purified LAP (1 μg/mL) for 30 min, rinsed with cold PBS, and lysed in Nondiet P-40 (NP-40) lysis buffer (20 mM Tris HCl, pH 8,137 mM NaCl, 1% NP-40, 2 mM EDTA). The cell lysates were pre-cleared with 10 μl protein G agarose beads (MicroProtein Technologies) for 1 h and the lysates were incubated with 2 μg of anti-IKKβ, 2 μg of anti-Hsp60, rabbit serum or normal mouse serum overnight at 4° C. The lysates were further mixed with 20 μL protein G agarose beads for 3 h at 4° C. The beads were washed five times with 1 ml NP-40 lysis buffer. The protein precipitates were analyzed by immunoblotting, and the complexes were visualized by chemiluminescence assay.

T1 sequence (P10809 27-573): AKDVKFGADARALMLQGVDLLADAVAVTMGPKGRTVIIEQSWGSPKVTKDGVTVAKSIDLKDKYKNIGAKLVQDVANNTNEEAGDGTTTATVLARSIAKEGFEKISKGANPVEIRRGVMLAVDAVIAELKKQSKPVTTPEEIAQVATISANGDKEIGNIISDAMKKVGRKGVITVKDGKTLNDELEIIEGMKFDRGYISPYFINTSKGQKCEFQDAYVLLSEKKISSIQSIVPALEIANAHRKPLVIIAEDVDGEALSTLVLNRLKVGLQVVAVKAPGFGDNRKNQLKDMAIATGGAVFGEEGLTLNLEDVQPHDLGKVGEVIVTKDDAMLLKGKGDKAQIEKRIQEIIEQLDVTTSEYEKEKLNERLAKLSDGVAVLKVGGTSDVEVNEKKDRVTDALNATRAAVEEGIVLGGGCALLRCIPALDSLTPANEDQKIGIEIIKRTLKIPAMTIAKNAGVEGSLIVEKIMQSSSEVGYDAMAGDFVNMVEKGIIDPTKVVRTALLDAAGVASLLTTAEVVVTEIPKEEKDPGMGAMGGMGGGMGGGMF

B1: LAP: Listeria adhesion protein, alcohol acetaldehyde dehydrogenase of Listeria monocytogenes, 866 aa, 94 kDa; recombinant, histidine-tagged form SEQ ID NO: 10 (protein)
chain: MAIKENAAQEVLEVQKVIDRLADNGQKALKAFESYNQEQVDNIVHAMALAGLDQHMPLAKLAVEETGRGLYEDKCIKNIFATEYIWNNIKNNKTVGVINEDVQTGVIEIAEPVGVVAGVTPVTNPTSTTLFKAIIAIKTRNPIIFAFHPSAQRCSSAAAKVVYDAAIAAGAPEHCIQWVEKPSLEATKQLMNHDKVALVLATGGAGMVKSAYSTGKPALGVGPGNVPAYIDKTAKIKRSVNDIILSKSFDQGMICASEQAVIVDKEVAKEVKAEMEANKCYFVKGAEFKKLESYVINPEKGTLNPDVVGKSPAWIANQAGFKVPEDTKILVAEIKGVGDKYPLSHEKLSPVLAFIEAANQAEAFDRCEEMLVYGGLGHSAVIHSTDKEVQKAFGIRMKACRIIVNAPSAQGGIGDIYNGFIPSLTLGCGSYGKNSVSQNVSATNLLNVKRIADRRNNMQWFKLPPKIFFEKYSTQYLQKMEGVERVFIVTDPGMGSFKYVDVVIEHLKKRGNDVAYQVFADVEPDPSDVTVYKGAELMKDFKPDTIIALGGGSAMDAAKGMWLFYEHPEASFFGLKQKFLDIRKRTFKYPKLGGKAKFVAIPTTSGTGSEVTPFAVITDKENNIKYPLADYELTPDVAIVDAQYVTTVPAHITADTGMDVLTHAIESYVSVMASDYTRGLSIRAIELVFENLRESVLTGDPDAREKMHNASALAGMAFANAFLGINHSLAHKIGPEFHIPHGRANAILMPHVIRYNALKPKKHALFPRYESFRADEDYARISRIIGFPAATTEEGVKSLVDEIIKLGKDVGIDMSLKGQNVAKKDLDAVVDTLADRAFMDQCTTANPKQPLVSELKEIYLEAYKGV
modifications: Listeria monocytogenes
As to B1, the FD4 permeability result in the series on Caco-2 cell monolayers is “significant increase in FD4 permeability equivalent to TNF-α”. In the series with human TNF-α, the TNF-α production entry is on record as “significantly higher levels”. The “cytopathic or cytotoxic effects (LDH assay)” value in the series on Caco-2 cells is listed as “without causing any cytopathic or cytotoxic effects”. The “NF-κB activation ability after polymyxin-B treatment” value in the series on NF-κB is reported as “retained the NF-κB activation ability”. Besides, the “NF-κB activation after proteinase-K treatment” value in the series on NF-κB is listed as “abolished”. In the series on NF-κB (100° C., 10 min), the “NF-κB activation ability after heat treatment” value is listed as “abolished the NF-κB activation ability”. In the series with NF-κB (purified proteins, LPS positive control), the NF-κB activation entry is recorded as “NF-κB activation in a concentration-dependent manner”. Further, the “localization of p65” value was “in the nucleus” with NF-κB(p65) (Caco-2 cells, LAP 1 μg/mL or TNF-α 10 ng/mL); “retained p65 within the cytoplasm” in the series on NF-κB(p65) (Hsp60 knocked-down Caco-2 cells); “nuclear translocation of p65” in the series with NF-κB(p65) (shRNA vector control Caco-2 cells). In addition, in the series with Hsp60 / IKK-β, the “interaction of Hsp60 with IKK-β” value was “Hsp60 co-precipitation”.
